{
  "source": "paper PMC11459180",
  "about": "“Structural basis for adhesin secretion by the outer-membrane usher in type 1 pili” (Proceedings of the National Academy of Sciences of the …, 2024)",
  "key": {"adhesin FimH (wild type)": {"biological_target": "T1, adhesin FimH (wild type) (Escherichia coli, UniProt P08191 22-300)", "T1 construct": "also called FimHWT; tip adhesin", "T1 sequence (P08191 22-300)": "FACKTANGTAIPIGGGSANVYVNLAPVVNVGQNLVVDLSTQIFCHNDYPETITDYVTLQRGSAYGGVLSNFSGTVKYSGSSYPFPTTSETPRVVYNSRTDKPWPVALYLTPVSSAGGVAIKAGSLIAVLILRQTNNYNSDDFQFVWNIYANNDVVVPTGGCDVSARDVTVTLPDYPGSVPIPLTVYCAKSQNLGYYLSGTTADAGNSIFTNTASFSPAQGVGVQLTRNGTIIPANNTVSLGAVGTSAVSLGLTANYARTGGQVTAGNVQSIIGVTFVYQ", "assay": "cryo-EM structure; FimD–FimCH complex, second class of particles in the same purified sample and dataset; ~3.5 Å; map fits PDB 3RFZ", "conditions": "both partners purified"}, "[1]": {"biological_target": "T2, outer-membrane usher FimD (Escherichia coli, UniProt P30130 46-878)", "T2 sequence": "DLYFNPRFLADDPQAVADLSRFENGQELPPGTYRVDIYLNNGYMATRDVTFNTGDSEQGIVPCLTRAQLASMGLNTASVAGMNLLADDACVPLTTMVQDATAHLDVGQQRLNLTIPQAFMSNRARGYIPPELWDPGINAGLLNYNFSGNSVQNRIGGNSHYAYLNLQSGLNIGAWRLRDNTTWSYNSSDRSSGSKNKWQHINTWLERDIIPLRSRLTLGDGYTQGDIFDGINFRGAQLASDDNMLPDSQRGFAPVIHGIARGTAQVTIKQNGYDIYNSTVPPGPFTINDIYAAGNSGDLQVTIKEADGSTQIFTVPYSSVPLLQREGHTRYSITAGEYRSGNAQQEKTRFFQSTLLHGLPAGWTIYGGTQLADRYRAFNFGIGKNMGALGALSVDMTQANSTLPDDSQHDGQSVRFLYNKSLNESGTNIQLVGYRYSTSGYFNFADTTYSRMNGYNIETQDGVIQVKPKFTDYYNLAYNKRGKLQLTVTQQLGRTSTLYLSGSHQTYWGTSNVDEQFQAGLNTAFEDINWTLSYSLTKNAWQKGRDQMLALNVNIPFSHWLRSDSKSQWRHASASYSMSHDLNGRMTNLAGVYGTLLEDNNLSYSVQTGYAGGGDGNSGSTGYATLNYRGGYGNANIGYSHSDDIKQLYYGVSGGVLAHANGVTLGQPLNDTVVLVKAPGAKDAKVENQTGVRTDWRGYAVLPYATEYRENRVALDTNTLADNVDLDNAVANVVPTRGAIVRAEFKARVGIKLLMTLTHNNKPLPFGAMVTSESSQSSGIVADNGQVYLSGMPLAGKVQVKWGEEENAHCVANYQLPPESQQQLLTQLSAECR", "assay": "cryo-EM structure", "conditions": "both partners purified"}},
  "data": [
    {"binder": "periplasmic chaperone FimC with a C-terminal polyhistidine tag (natural protein, also called FimChis; FimCHis; not shown: polyhistidine, C-terminal, kept) GVALGATRVIYPAGQKQEQLAVTNNDENSTYLIQSWVENADGVKDGRFIVTPPLFAMKGKKENTLRILDATNNQLPQDRESLFWMNVKAIPSMDKSKLTENTLQLAIISRIKLYYRPAKLALPPDQAAEKLRFRRSANSLTLINPTPYYLTVTELNAGTRVLENALVPPMGESTVKLPSDAGSNITYRTINDYGALTPKMTGVME", "values": [
      {"measurement": "binding result", "setting": "adhesin FimH (wild type)", "result": "binds"},
      {"measurement": "binding result", "setting": "[1]", "result": "binds"}
    ]}
  ]
}
